# Laboratory results as given in publication PMC6321479, “The C Terminus of the Ribosomal-Associated Protein LrtA Is an Intrinsically Disordered Oligomer” (International Journal of Molecular Sciences, 2018).
# B1: C-terminal region of LrtA (C-LrtA, residues 102-191) with N-terminal His-tag (domain or fragment, Synechocystis sp. PCC 6803)
# chain: QHGNVKTSEIVEDKPVEENLIGDRAPELPSEVLRMKYFAMPPMAIEDALEQLQLVDHDFYMFRNKDTDEINVIYIRNHGGYGVIQPHQAS
# notes: LrtA of Synechocystis sp; PCC 6803 (191 residues), residues 102-191; whole construct 109 residues with the His-tag, 12,449.89 Da; Cloned in pHTP1 by NZytech; also called isolated C-LrtA; C-terminal half of LrtA protein; source: E. coli BL21 (DE3), purified (Ni-resin IMAC, Hi-Trap Mono Q)
# Tests used:
# [1] = target: the molecule itself; assay: SEC; Superose 12 10/300 GL, pH 8.0 (50 mM Tris), 0.250 M NaCl, 0.8 mL/min; C-LrtA loaded at 30 uM (protomer), 100 uL
# [2] = target: the molecule itself; assay: cross-linking; glutaraldehyde, pH 7.2 (50 mM Tris), 120 uM C-LrtA (protomer), 200 uL, several reaction times, SDS-PAGE
# [3] = target: the molecule itself; assay: native gel or EMSA; blue-native PAGE, linear 4-16% gradient gel, 20 ug C-LrtA with Coomassie Brilliant blue G, 4 °C; increasing amounts of SDS also tested
# [4] = target: the molecule itself; assay: SEC; Superose 12 10/300 GL, pH 8.0 (50 mM Tris), 0.250 M NaCl, 0.8 mL/min; C-LrtA loaded at 500 uM (protomer), 100 uL
protein,measurement,setting,value
B1,stoichiometry N,[1],~2
same,stoichiometry N,[2],2
same,stoichiometry N,[3],5
same,stoichiometry N,[4],~8
